Data set [1] deals with T1, ExoX (NT167) (Escherichia coli K12, UniProt P0AEK0 1-167).
T1 sequence: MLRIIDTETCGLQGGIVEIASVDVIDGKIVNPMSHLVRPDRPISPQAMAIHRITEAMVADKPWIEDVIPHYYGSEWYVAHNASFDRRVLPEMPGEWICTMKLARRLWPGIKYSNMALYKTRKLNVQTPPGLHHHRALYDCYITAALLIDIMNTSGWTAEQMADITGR
The data set can be described thus: X-ray crystallography; 2 ExoX monomers per DNA; metal at MeA site; Crystals by hanging drop, 16 C: complex I 0.1 M Tris-HCl pH 8.0, 0.2 M NaCl, 20% PEG 3350; complexes II and III 0.1 M MES pH 6.3, 17% PEG 6000; protein:DNA 1:0.6, 30 min at 4 C, gel filtration. As to conditions: protein: recombinant; (pET24a, Ni-NTA); chain copies: 2; blunt. On the technique in general: SEC sorts molecules by how far they enter the pores of the column.

The target of data set [2] is T1, ExoX (NT167). The data set can be described thus: X-ray crystallography; two undefined metal ions (MeA, MeB), probably inactive (Ni2+ or Na+); SeMet ExoX; 2:1 protein:DNA; Crystals by hanging drop, 16 C: complex I 0.1 M Tris-HCl pH 8.0, 0.2 M NaCl, 20% PEG 3350; complexes II and III 0.1 M MES pH 6.3, 17% PEG 6000; protein:DNA 1:0.6, 30 min at 4 C, gel filtration. As to conditions: protein: recombinant; (pET24a, Ni-NTA; chain copies: 2; text says 17 bp).

The target in data set [3] is T1, ExoX (NT167). Briefly: X-ray crystallography; Crystals by hanging drop, 16 C: complex I 0.1 M Tris-HCl pH 8.0, 0.2 M NaCl, 20% PEG 3350; complexes II and III 0.1 M MES pH 6.3, 17% PEG 6000; protein:DNA 1:0.6, 30 min at 4 C, gel filtration. As to conditions: protein: recombinant; (pET24a, Ni-NTA); chain copies: 2; self-annealed, 2 copies of S2; 5' overhang 5 nt, mispaired 3' terminal nucleotides.

B1: 12 bp blunt-ended dsDNA (complex II) (dsDNA)
DNA 1: CTCGAATCTACA
DNA 2: TGTAGATTCGAG
B1: the binding result in the data set with ExoX (NT167) [1] is given as “binds”.

B2: 3' overhanging dsDNA (complex I) (dsDNA)
DNA 1: CGGATCCACAATGACCT
DNA 2: GTCATTGTGGATCCGAG
Regarding B2, in the data set with ExoX (NT167) [2], the binding result is recorded as “binds”.

B3: 3' recessed mismatch-containing dsDNA (complex III) (dsDNA)
DNA 1: GTCATTGTGGATCCGAG
DNA 2: GTCATTGTGGATCCGAG
For the molecule B3, the binding result in the data set with ExoX (NT167) [3] was “binds”.
